As usually defined, the pKd is the negative decadic logarithm of the Kd, by convention in mol/L. A higher pKd goes with a low Kd.

The target in the assay is rat growth hormone releasing hormone receptor (rat) (UniProt Q02644). The assay is described as follows: radioligand competition binding of radioiodinated JV-1-42 to membrane fractions of ischemic rat heart.

pKd: −log10 of the molar value.

UniProt Q02644, sequence (Q02644 23-464): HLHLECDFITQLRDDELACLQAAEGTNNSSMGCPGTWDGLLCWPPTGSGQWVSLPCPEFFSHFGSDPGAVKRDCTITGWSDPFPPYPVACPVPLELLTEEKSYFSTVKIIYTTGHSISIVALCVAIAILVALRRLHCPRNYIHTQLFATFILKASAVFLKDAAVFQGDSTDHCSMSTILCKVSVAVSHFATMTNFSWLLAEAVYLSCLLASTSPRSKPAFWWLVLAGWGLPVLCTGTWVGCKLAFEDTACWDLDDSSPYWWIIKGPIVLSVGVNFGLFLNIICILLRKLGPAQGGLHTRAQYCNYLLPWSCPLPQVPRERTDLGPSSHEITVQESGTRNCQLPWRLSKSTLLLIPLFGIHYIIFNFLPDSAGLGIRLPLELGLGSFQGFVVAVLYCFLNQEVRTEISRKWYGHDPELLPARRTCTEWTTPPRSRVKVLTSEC

“GHRH antagonist JV-1-42 (radioiodinated) (peptide)” showed a Bmax (fmol/mg protein) of 51.3 and a pKd of 9.07.

For the origin of these results see patent US20140057847A1.
